From US20200317768A1 (published 2020)

T1: cynomolgus monkey FcγRIIa1 extracellular domain, C-terminal His-tag (cynomolgus monkey)
T1 construct: also called cyno FcγRIIa1; cynoFcgRIIa1
T1 chain: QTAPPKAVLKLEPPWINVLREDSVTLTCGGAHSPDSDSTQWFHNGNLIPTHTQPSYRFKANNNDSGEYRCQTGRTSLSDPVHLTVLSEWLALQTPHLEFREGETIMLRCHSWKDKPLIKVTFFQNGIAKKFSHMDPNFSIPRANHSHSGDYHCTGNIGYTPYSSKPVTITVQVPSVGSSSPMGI

T2: cynomolgus monkey FcγRIIa2 extracellular domain, C-terminal His-tag (cynomolgus monkey)
T2 construct: also called cyno FcγRIIa2; cynoFcgRIIa2
T2 chain: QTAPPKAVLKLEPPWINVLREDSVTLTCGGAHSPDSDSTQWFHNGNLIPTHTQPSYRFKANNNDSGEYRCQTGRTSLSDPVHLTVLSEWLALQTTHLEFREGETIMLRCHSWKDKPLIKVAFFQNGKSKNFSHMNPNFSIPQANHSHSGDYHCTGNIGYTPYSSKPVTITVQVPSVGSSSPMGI

T3: cynomolgus monkey FcγRIIa3 extracellular domain, C-terminal His-tag (cynomolgus monkey)
T3 construct: also called cyno FcγRIIa3; cynoFcgRIIa3
T3 chain: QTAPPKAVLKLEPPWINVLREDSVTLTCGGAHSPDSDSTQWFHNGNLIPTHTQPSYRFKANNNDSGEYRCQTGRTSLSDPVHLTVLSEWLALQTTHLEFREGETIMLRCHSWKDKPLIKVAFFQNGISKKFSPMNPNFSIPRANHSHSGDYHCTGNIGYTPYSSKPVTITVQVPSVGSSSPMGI

T4: cynomolgus monkey FcγRIIb extracellular domain, C-terminal His-tag (cynomolgus monkey)
T4 construct: also called cyno FcγRIIb; cynoFcγRIIb
T4 chain: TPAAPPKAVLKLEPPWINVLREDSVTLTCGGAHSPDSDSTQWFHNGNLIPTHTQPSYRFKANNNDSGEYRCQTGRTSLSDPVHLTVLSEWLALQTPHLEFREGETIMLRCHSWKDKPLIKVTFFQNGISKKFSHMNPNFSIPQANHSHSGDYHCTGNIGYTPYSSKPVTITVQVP

T5: cynomolgus monkey FcγRIIIaS extracellular domain, C-terminal His-tag (cynomolgus monkey, UniProt Q8SPW2 21-206 at identity 1.00))
T5 construct: also called cyno FcγRIIIaS; cynoFcγRIIIaS
T5 chain: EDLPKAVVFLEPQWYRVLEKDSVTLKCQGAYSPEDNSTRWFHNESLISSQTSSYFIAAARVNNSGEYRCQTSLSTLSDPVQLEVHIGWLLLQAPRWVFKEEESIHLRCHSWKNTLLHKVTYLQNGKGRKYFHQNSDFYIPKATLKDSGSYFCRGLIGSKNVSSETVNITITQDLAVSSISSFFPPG

T6: human FcγRIIaH extracellular domain, C-terminal His-tag (human, UniProt P12318 34-217)
T6 construct: also called human FcγRIIa (type H); FcgRIIaH
T6 sequence: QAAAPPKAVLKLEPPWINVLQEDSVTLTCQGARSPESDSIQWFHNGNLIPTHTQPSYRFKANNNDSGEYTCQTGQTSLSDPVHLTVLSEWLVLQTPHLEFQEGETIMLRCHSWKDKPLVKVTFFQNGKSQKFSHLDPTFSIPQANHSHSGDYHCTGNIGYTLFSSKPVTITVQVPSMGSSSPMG

T7: human FcγRIIaR extracellular domain, C-terminal His-tag (human, UniProt P12318 34-217)
T7 construct: also called human FcγRIIa (type R); FcgRIIaR
T7 chain: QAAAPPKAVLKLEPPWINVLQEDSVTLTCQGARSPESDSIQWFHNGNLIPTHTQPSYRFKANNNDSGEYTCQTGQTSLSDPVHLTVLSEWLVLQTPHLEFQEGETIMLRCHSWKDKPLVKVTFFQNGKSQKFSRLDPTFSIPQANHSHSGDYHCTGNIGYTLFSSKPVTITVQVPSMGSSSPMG

T8: human FcγRIIb extracellular domain, C-terminal His-tag (human, UniProt P31994 43-217)
T8 construct: also called human FcgRIIb; FcgRIIb
T8 sequence: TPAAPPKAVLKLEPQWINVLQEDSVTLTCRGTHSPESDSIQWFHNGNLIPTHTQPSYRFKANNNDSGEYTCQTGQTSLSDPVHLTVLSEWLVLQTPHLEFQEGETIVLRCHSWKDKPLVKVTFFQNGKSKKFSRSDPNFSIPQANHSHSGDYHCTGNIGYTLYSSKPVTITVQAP


Columns and labels:
Assay in all cases: SPR (Biacore), antibody captured, FcgR analyte
[1] = target: T1, cynomolgus monkey FcγRIIa1 …
Experimental: (§1) The kinetic analysis of interactions between these antibodies and FcγR was carried out using BIACORE® T200 or BIACORE® 4000 (GE Healthcare). HBS-EP+ (GE Healthcare) was used as the running buffer, and the measurement temperature was set to 25° C. A chip produced by immobilizing Protein A. Protein A/G or mouse anti-human IgG kappa light chain (BD Biosciences) onto a Series S Sensor Chip CM4 or CM5 (GE Healthcare) by the amine-coupling method was used. […] After the measurement, the antibody captured on the chip was washed off by allowing reaction with 10 mM glycine-HCl, pH1.5 and 25 mM NaOH so that the chip was regenerated and used repeatedly. The sensorgrams obtained as measurement results were analyzed by the 1:1 Langmuir binding model using the BIACORE® Evaluation Software to calculate the binding rate constant ka (L/mol/s) and dissociation rate constant kd (l/s), and the dissociation constant KD (mol/L) was calculated from these values. […] Regarding such interactions, KD values were calculated using the following 1:1 binding model described in BIACORE® T100 Software Handbook BR1006-48 Edition AE.
(§2) The behavior of interacting molecules according to the 1:1 binding model on BIACORE® can be described by Equation 1: Req=C·R max/(KD+C)+RI, wherein, Req is a plot of steady-state binding levels to analyte concentration. C is concentration, RI is bulk refractive index contribution in the sample, and Rmax is analyte binding capacity of the surface. When this equation is rearranged, KD can be expressed as Equation 2: KD=C·Rmax/(Req−RI)−C. KD can be calculated by substituting the values of Rmax, RI, and C into Equation 1 or Equation 2. From the current measurement conditions, RI=0, C=2 μmol/L can be used.

[2] = target: T2, cynomolgus monkey FcγRIIa2 …
Experimental: as §1, §2

[3] = target: T3, cynomolgus monkey FcγRIIa3 …
Experimental: as §1, §2

[4] = target: T4, cynomolgus monkey FcγRIIb extracellular …
Experimental: as §1, §2

[5] = target: T5, cynomolgus monkey FcγRIIIaS …
Experimental: as §1, §2

[6] = target: T6, human FcγRIIaH extracellular domain, …
Experimental: as §1, §2

[7] = target: T7, human FcγRIIaR extracellular domain, …
Experimental: as §1, §2

[8] = target: T8, human FcγRIIb extracellular domain, …
Experimental: as §1, §2

[9] = target: T9, human FcγRIIIaV extracellular domain, C-terminal His-tag (human, UniProt P08637 17-208)
T9 construct: also called human FcgRIIIaV; FcgRIIIaV
Experimental: as §1, §2

T9 sequence (P08637 17-208 F176V): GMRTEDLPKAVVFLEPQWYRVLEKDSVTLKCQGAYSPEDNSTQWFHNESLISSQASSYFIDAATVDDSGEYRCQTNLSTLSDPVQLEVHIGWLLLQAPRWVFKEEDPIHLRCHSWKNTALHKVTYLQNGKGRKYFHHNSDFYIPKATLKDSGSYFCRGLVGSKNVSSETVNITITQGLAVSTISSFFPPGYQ

| Kd [1] | Kd [2] | Kd [3] | Kd [4] | Kd [5] | Kd [6] | Kd [7] | Kd [8] | Kd [9] | Binder |
| --- | --- | --- | --- | --- | --- | --- | --- | --- | --- |
| 860 nM | 640 nM | 22000 nM | 460 nM | 4000 nM | 12000 nM | 1200 nM | 710 nM | 9400 nM | M103205H795-MY202/M103202L889-SK1 (antibody, human IgG1, kappa, Substitutions introduced into M103205H795-SG1; expressed with M103202L889-SK1 as light chain) heavy: QVTLKESGPVLVKPTETLTLTCTVSGIDLSHDDISWVRQAPGKGLEWVGIISYAGSTYYASWAKGRLTISKDTSKNQVVLTMTNMDPVDTATYYCARGVPAYSHGGDLWGQGTLVTVSSASTKGPSVFPLAPSSKSTSGGTAALGCLVKDYFPEPVTVSWNSGALTSGVHTFPAVLQSSGLYSLSSVVTVPSSSLGTQTYICNVNHKPSNTKVDKKVEPKSCDKTHTCPPCPAPELLNGPVVFLFPPKPKDTLMISRTPEVTCVVVDVSDEDPEVKFNWYVDGVEVHNAKTKPREEQYNSTYRVVSVLTVLHQDWLNGKEYKCKVSNKALPKPIEKTISKAKGQPREPQVYTLPPSREEMTKNQVSLTCLVKGFYPSDIAVEWESNGQPENNYKTTPPVLDSDGSFFLYSKLTVDKSRWQQGNVFSCSVMHEALHNHYTQKSLSLSP light: DIVMTQSPATLSLSPGERATLSCTSSQSVYHANWLSWFQQKPGQPPKLLIYWASTLAYGVPSRFSGSGSGTDFTLTISSLQPEDAATYYCAGGYGGGRYAFGQGTKVEIKRTVAAPSVFIFPPSDEQLKSGTASVVCLLNNFYPREAKVQWKVDNALQSGNSQESVTEQDSKDSTYSLSSTLTLSKADYEKHKVYACEVTHQGLSSPVTKSFNRGEC |
| 520 nM | 790 nM | 5000 nM | 450 nM | 5300 nM | 1000 nM | 1400 nM | 800 nM | 8200 nM | M103205H795-MY206/M103202L889-SK1 (antibody, human IgG1, kappa, Substitutions introduced into M103205H795-SG1; expressed with M103202L889-SK1 as light chain) heavy: QVTLKESGPVLVKPTETLTLTCTVSGIDLSHDDISWVRQAPGKGLEWVGIISYAGSTYYASWAKGRLTISKDTSKNQVVLTMTNMDPVDTATYYCARGVPAYSHGGDLWGQGTLVTVSSASTKGPSVFPLAPSSKSTSGGTAALGCLVKDYFPEPVTVSWNSGALTSGVHTFPAVLQSSGLYSLSSVVTVPSSSLGTQTYICNVNHKPSNTKVDKKVEPKSCDKTHTCPPCPAPELLNGPVVFLFPPKPKDTLMISRTPEVTCVVVDVSDEDPEVKFNWYVDGVEVHNAKTKPREELYNSTYRVVSVLTVLHQDWLNGKEYKCKVSNKALPKPIEKTISKAKGQPREPQVYTLPPSREEMTKNQVSLTCLVKGFYPSDIAVEWESNGQPENNYKTTPPVLDSDGSFFLYSKLTVDKSRWQQGNVFSCSVMHEALHNHYTQKSLSLSP light: DIVMTQSPATLSLSPGERATLSCTSSQSVYHANWLSWFQQKPGQPPKLLIYWASTLAYGVPSRFSGSGSGTDFTLTISSLQPEDAATYYCAGGYGGGRYAFGQGTKVEIKRTVAAPSVFIFPPSDEQLKSGTASVVCLLNNFYPREAKVQWKVDNALQSGNSQESVTEQDSKDSTYSLSSTLTLSKADYEKHKVYACEVTHQGLSSPVTKSFNRGEC |
| 900 nM | 1100 nM | 30000 nM | 250 nM | 6000 nM | 470 nM | 1300 nM | 560 nM | 15000 nM | M103205H795-MY205/M103202L889-SK1 (antibody, human IgG1, kappa, also called MS1032LO06-MY205) heavy: QVTLKESGPVLVKPTETLTLTCTVSGIDLSHDDISWVRQAPGKGLEWVGIISYAGSTYYASWAKGRLTISKDTSKNQVVLTMTNMDPVDTATYYCARGVPAYSHGGDLWGQGTLVTVSSASTKGPSVFPLAPSSKSTSGGTAALGCLVKDYFPEPVTVSWNSGALTSGVHTFPAVLQSSGLYSLSSVVTVPSSSLGTQTYICNVNHKPSNTKVDKKVEPKSCDKTHTCPPCPAPELLNGPSVFLFPPKPKDTLMISRTPEVTCVVVDVSDEDPEVKFNWYVDGVEVHNAKTKPREELYNSTYRVVSVLTVLHQDWLNGKEYKCKVSNKALPKPIEKTISKAKGQPREPQVYTLPPSREEMTKNQVSLTCLVKGFYPSDIAVEWESNGQPENNYKTTPPVLDSDGSFFLYSKLTVDKSRWQQGNVFSCSVMHEALHNHYTQKSLSLSP light: DIVMTQSPATLSLSPGERATLSCTSSQSVYHANWLSWFQQKPGQPPKLLIYWASTLAYGVPSRFSGSGSGTDFTLTISSLQPEDAATYYCAGGYGGGRYAFGQGTKVEIKRTVAAPSVFIFPPSDEQLKSGTASVVCLLNNFYPREAKVQWKVDNALQSGNSQESVTEQDSKDSTYSLSSTLTLSKADYEKHKVYACEVTHQGLSSPVTKSFNRGEC |
| 1300 nM | 1400 nM | 5200 nM | 810 nM | 3500 nM | 1300 nM | 2800 nM | 1300 nM | 13000 nM | M103205H795-MY204/M103202L889-SK1 (antibody, human IgG1, kappa, Substitutions introduced into M103205H795-SG1; expressed with M103202L889-SK1 as light chain) heavy: QVTLKESGPVLVKPTETLTLTCTVSGIDLSHDDISWVRQAPGKGLEWVGIISYAGSTYYASWAKGRLTISKDTSKNQVVLTMTNMDPVDTATYYCARGVPAYSHGGDLWGQGTLVTVSSASTKGPSVFPLAPSSKSTSGGTAALGCLVKDYFPEPVTVSWNSGALTSGVHTFPAVLQSSGLYSLSSVVTVPSSSLGTQTYICNVNHKPSNTKVDKKVEPKSCDKTHTCPPCPAPELLNGPVVFLFPPKPKDTLMISRTPEVTCVVVDVSEEDPEVKFNWYVDGVEVHNAKTKPREELYNSTYRVVSVLTVLHQDWLNGKEYKCKVSNKALPKPIEKTISKAKGQPREPQVYTLPPSREEMTKNQVSLTCLVKGFYPSDIAVEWESNGQPENNYKTTPPVLDSDGSFFLYSKLTVDKSRWQQGNVFSCSVMHEALHNHYTQKSLSLSP light: DIVMTQSPATLSLSPGERATLSCTSSQSVYHANWLSWFQQKPGQPPKLLIYWASTLAYGVPSRFSGSGSGTDFTLTISSLQPEDAATYYCAGGYGGGRYAFGQGTKVEIKRTVAAPSVFIFPPSDEQLKSGTASVVCLLNNFYPREAKVQWKVDNALQSGNSQESVTEQDSKDSTYSLSSTLTLSKADYEKHKVYACEVTHQGLSSPVTKSFNRGEC |
